Tests used:
Grb2 SH2 = Grb2 SH2 (UniProt P62993); assay: SH2 binding enrichment of the phosphorylated peptide, bacterial display (enrichment ratio); higher = better substrate or ligand; peptides without Tyr show the background
c-Src SH2 = assay: as above
SHP2-C SH2 = assay: as above
FGFR3 = FGFR3 (UniProt P22607); assay: phosphorylation enrichment, bacterial display (enrichment ratio); higher = better substrate or ligand; peptides without Tyr show the background
MERTK = MERTK (UniProt Q12866); assay: as above
Hck = Hck (UniProt P08631); assay: as above
Sequence of Hck (P08631 whole entry, looked up): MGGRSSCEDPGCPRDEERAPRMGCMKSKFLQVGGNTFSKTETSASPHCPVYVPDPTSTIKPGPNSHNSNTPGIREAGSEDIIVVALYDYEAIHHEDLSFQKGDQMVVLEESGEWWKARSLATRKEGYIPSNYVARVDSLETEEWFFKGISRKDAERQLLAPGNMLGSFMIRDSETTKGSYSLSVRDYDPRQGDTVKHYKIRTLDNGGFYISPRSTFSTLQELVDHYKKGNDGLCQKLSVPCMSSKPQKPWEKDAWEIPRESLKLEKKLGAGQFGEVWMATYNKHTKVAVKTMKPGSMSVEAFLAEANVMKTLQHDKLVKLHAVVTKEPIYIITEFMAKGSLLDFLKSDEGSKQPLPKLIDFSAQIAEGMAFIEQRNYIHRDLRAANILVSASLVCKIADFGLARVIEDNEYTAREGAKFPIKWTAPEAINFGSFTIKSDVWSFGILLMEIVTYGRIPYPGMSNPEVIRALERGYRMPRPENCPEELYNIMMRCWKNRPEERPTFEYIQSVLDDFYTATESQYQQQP

AncSZ = assay: as above
Jak2 = Jak2 (UniProt O60674); assay: as above
Fyn = Fyn (UniProt P06241); assay: as above
Sequence of Fyn (P06241 whole entry, looked up): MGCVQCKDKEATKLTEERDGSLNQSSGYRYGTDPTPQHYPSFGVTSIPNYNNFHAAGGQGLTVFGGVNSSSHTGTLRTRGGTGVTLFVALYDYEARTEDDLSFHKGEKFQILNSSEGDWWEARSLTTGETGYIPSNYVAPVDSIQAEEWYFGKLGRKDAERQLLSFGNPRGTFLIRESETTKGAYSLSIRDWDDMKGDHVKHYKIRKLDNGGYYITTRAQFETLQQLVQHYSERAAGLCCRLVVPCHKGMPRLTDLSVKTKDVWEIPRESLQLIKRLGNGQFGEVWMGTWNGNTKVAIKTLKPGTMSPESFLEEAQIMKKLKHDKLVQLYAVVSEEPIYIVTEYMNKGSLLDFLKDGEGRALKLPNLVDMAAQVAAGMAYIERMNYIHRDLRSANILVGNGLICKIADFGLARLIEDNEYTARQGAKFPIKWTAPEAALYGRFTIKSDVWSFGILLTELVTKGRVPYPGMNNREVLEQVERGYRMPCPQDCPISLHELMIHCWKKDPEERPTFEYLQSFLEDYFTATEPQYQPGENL

FGFR1 = FGFR1 (UniProt P11362); assay: as above
Sequence of FGFR1 (P11362 whole entry, looked up): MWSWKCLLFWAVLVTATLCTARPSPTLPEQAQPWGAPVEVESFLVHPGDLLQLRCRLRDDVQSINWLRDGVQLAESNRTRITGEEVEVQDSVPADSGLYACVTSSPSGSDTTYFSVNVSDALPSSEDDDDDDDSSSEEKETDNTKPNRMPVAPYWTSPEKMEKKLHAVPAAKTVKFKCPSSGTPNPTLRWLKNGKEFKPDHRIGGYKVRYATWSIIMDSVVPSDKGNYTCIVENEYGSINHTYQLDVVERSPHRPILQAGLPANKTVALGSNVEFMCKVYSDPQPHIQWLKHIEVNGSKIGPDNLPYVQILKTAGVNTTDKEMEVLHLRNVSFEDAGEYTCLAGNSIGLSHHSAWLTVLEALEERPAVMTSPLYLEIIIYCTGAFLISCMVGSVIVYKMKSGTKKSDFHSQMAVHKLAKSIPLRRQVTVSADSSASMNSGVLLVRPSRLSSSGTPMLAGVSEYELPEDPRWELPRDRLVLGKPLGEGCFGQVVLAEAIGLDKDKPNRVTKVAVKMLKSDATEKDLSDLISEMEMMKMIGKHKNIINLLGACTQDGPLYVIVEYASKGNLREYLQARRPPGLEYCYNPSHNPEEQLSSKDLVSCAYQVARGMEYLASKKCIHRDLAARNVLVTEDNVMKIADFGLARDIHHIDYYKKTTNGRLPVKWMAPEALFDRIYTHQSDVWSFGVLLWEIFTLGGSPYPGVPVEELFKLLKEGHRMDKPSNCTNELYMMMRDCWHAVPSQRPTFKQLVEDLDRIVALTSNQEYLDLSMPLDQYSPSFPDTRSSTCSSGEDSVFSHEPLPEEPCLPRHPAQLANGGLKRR

Fes = Fes (UniProt P07332); assay: as above
Sequence of Fes (P07332 whole entry, looked up): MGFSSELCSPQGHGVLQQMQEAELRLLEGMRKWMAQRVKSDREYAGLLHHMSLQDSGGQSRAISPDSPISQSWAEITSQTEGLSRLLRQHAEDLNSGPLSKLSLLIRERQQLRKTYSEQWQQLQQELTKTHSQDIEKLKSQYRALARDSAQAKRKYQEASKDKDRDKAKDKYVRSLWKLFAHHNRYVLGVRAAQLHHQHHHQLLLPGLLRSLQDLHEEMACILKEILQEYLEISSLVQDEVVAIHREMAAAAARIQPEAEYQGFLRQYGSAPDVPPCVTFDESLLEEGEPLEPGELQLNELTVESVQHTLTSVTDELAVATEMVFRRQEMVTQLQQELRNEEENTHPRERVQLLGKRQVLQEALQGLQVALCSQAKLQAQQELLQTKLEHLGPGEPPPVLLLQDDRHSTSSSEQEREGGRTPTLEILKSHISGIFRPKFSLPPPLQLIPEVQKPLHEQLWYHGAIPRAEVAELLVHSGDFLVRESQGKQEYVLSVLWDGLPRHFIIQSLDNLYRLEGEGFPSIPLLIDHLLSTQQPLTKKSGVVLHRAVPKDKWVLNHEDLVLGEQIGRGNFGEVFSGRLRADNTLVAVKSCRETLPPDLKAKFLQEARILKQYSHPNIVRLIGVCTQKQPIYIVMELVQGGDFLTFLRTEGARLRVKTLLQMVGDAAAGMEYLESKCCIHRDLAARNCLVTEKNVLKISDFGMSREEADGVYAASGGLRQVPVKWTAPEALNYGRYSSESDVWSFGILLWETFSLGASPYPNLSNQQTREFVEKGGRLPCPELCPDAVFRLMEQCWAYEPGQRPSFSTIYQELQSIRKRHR

c-Abl (mouse) = assay: as above
EPHB2 = EPHB2 (UniProt P29323); assay: as above
Sequence of EPHB2 (P29323 whole entry, looked up): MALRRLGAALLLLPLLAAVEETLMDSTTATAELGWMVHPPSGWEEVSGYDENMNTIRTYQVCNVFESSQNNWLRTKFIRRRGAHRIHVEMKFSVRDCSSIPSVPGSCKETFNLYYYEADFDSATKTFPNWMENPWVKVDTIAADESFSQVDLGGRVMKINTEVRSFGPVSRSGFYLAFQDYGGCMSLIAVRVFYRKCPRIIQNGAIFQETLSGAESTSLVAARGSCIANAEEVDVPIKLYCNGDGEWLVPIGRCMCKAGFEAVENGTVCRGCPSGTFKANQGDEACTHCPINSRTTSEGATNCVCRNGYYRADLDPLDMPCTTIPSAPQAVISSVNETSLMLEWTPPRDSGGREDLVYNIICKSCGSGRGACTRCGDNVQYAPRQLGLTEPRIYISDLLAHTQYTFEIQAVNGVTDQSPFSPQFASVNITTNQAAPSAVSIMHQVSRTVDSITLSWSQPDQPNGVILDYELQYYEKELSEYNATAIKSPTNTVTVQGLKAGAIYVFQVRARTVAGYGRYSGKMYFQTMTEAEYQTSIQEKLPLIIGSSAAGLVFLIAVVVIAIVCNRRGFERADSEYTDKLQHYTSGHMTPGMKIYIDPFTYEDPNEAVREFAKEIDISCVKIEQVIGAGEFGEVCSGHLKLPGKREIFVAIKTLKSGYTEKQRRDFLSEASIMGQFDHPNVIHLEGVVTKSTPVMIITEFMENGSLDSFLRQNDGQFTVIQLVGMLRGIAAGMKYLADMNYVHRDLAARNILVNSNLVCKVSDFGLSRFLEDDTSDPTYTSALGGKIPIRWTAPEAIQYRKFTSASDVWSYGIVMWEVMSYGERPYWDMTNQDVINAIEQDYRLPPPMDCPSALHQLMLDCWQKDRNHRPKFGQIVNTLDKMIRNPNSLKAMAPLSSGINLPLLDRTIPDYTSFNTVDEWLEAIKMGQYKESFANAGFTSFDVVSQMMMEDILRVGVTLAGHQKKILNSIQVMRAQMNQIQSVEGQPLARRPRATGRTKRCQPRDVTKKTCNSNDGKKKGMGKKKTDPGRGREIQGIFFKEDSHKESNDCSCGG

c-Src = assay: as above
EPHB1 = EPHB1 (UniProt P54762); assay: as above
Fer (mouse) = assay: as above
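For SH2 binding enrichment of the phosphorylated peptide, bacterial display in this document: peptide library displayed on the E. coli surface as eCPX fusions, selected cells deep-sequenced, score is each peptide's frequency after selection divided by its frequency in the input.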
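For phosphorylation enrichment, bacterial display in this document: 11-residue human phosphosite peptides and single-mutation variants displayed on the E. coli surface, counted by deep sequencing, each peptide's frequency after selection divided by its frequency in the unselected input library; frequency after pTyr selection over input frequency; kinase dosed for 20-30% of maximal phosphorylation in three min.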

Sequence of FGFR3 (P22607 whole entry, looked up): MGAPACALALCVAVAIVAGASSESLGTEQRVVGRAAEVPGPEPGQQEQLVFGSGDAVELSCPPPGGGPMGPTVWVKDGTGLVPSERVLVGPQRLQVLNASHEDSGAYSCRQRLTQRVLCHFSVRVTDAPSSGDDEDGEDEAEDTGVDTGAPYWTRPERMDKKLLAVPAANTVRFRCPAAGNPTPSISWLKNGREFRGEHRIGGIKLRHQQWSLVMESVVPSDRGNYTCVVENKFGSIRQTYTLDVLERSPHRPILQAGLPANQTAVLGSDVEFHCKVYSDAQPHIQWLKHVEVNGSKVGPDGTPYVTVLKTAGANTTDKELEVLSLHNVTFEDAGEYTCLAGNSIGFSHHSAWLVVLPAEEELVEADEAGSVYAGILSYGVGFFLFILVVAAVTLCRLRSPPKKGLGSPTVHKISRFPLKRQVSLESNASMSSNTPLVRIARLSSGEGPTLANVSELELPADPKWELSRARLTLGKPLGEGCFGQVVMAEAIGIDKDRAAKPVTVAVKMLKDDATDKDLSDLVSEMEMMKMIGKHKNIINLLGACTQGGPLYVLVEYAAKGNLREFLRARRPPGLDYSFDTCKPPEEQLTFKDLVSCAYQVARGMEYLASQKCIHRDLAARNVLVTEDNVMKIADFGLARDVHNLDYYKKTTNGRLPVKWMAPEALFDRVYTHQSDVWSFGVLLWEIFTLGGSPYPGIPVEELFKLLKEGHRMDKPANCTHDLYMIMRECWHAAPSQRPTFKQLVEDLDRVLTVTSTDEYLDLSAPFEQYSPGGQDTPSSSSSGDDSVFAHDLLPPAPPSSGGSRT

SH2 binding enrichment (Grb2 SH2)	SH2 binding enrichment (c-Src SH2)	SH2 binding enrichment (SHP2-C SH2)	Sequence	phosphorylation enrichment (FGFR3)	phosphorylation enrichment (MERTK)	phosphorylation enrichment (Hck)	phosphorylation enrichment (AncSZ)	phosphorylation enrichment (Jak2)	phosphorylation enrichment (Fyn)	phosphorylation enrichment (FGFR1)	phosphorylation enrichment (Fes)	phosphorylation enrichment (c-Abl (mouse))	phosphorylation enrichment (EPHB2)	phosphorylation enrichment (c-Src)	phosphorylation enrichment (EPHB1)	phosphorylation enrichment (Fer (mouse))
0.943	0.567	0.539	RGLQVYHKRNA [LRP2_Y2010_R2012K]	0.642	0.496	0.59	0.545	0.654	0.496	0.433	0.985	0.561	0.468	0.497	0.45	0.517
0.447	0.414	0.531	RIPFRYPKEFQ [IDS_Y234_H229R]	1.07	0.637	1.07	0.946	1.48	0.56	0.78	1.14	0.998	0.646	1.1	0.571	0.627
0.944	0.485	0.701	RIVEIYSRSLQ [GCH1_Y175_R178S]	1.67	1.17	2.61	1.43	0.895	1.52	0.753	1.95	1.07	0.985	1.28	1.03	0.87
0.782	1.41	1.12	RLDRSYSYSYS [PEAR1_Y890]	0.42	0.569	0.5	0.655	0.374	0.334	0.594	0.597	0.359	0.434	0.42	0.443	0.467
0.889	0.549	0.556	RLYARYFQGDL [PDK3_Y337]	0.923	0.711	0.511	1.24	1.57	0.6	0.684	1.26	1.18	0.664	0.763	0.705	0.543
0.76	0.405	0.904	RMETAYGPSVT [MXRA5_Y2717_E2716A]	0.529	0.444	0.63	0.635	0.661	0.467	0.448	0.718	0.511	0.46	0.646	0.413	0.617
0.712	0.438	0.608	RMLRKYQELMS [KRT74_Y425_E424K]	0.402	0.485	0.43	0.643	0.5	0.509	0.556	0.673	0.455	0.397	0.447	0.419	0.522

Reference: the supplement of paper PMC10065799, “High-throughput profiling of sequence recognition by tyrosine kinases and SH2 domains using bacterial peptide display” (eLife, 2023)
